T1: Human B7H6 (ACRO biosystems, cat. No. B76-H52H8) (human, UniProt Q68D85 25-262)
T1 construct: Bought antigen; also called B7H6 antigen; human B7H6 protein
T1 sequence (looked up): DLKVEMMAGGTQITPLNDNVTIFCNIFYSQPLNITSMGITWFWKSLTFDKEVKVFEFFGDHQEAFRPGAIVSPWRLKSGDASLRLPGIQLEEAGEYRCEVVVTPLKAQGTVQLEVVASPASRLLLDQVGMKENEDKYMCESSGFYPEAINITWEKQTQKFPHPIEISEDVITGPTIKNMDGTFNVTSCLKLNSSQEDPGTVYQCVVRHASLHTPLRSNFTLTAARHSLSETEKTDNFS

B1: CD3xB7H6-17 bispecific antibody (bispecific antibody, human IgG1, L234A L235A)
chain 1: not shown
chain 2: DIVLTQSPVSLAVPLGQRATISCKASQSVDYDGDSYMNWYQQKPGQPPKLLIYAASTLHSGIPVRFSGSGSGTDFTLNIHPVEEEDAASYYCQQSKEDPRTFGGGTKLEIKGGGGSGGGGSGGGGSEVLLQQSGPEVVKPGASVKITCKASGYTFTDYNMDWVKQSHGKSLEWIGDINPNNAGTLYNQKFRGRVTLIVDKSSSTAYMELRSLTSDDTAVYYCARSEVFYGNYADYWGQGTTLTVSSEPKSCDKTHTCPPCPAPEAAGGPSVFLFPPKPKDTLMISRTPEVTCVVVDVSHEDPEVKFNWYVDGVEVHNAKTKPREEQYNSTYRVVSVLTVLHQDWLNGKEYKCKVSNKALPAPIEKTISKAKGQPREPQVCTLPPSRDELTKNQVSLSCAVKGFYPSDIAVEWESNGQPENNYKTTPPVLDSDGSFFLVSKLTVDKSRWQQGNVFSCSVMHEALHNHYTQKSLSLSPGK
notes: Heterodimer of two scFv-Fc units, knob-into-hole human IgG1 Fc; name formed by analogy with CD3xB7H6-14
B2: CD3xB7H6-18 bispecific antibody (bispecific antibody, human IgG1, L234A L235A)
chain 1: not shown
chain 2: B1 chain 2 with G33A, A182G
notes: as for B1
B3: CD3xB7H6-11 bispecific antibody (bispecific antibody, human IgG1, L234A L235A)
chain 1: not shown
chain 2: DIVLTQTPLSLSVTPGQPASISCKASQSVDYDGDSYMNWYLQKPGQPPQLLIYAASTLHSGVPDRFSGSGSGTDFTLKISRVEAEDVGVYYCQQSKEDPRTFGQGTKLEIKGGGGSGGGGSGGGGSEVQLVQSGAEVKKPGASVKVSCKASGYTFTDYNMDWVRQAPGQGLEWIGDINPNNGGTLYNQKFRGRVTLTVDKSISTAYMELSRLRSDDTAVYYCARSEVFYGNYADYWGQGTTVTVSSEPKSCDKTHTCPPCPAPEAAGGPSVFLFPPKPKDTLMISRTPEVTCVVVDVSHEDPEVKFNWYVDGVEVHNAKTKPREEQYNSTYRVVSVLTVLHQDWLNGKEYKCKVSNKALPAPIEKTISKAKGQPREPQVCTLPPSRDELTKNQVSLSCAVKGFYPSDIAVEWESNGQPENNYKTTPPVLDSDGSFFLVSKLTVDKSRWQQGNVFSCSVMHEALHNHYTQKSLSLSPGK
notes: as for B1
B4: CD3xB7H6-16 bispecific antibody (bispecific antibody, human IgG1, L234A L235A)
chain 1: not shown
chain 2: B3 chain 2 with V62I, Q169K
notes: as for B1
B5: CD3xB7H6-14 bispecific antibody (bispecific antibody, human IgG1, L234A L235A)
chain 1: not shown
chain 2: B3 chain 2 with V62I, K200T
notes: Heterodimer of two scFv-Fc units, knob-into-hole human IgG1 Fc; lead molecule; also called CD3kB7H6-14
B6: CD3xB7H6-13 bispecific antibody (bispecific antibody, human IgG1, L234A L235A)
chain 1: not shown
chain 2: B3 chain 2 with V62I, I174M, L196M, K200T
notes: as for B1
B7: CD3xB7H6-12 bispecific antibody (bispecific antibody, human IgG1, L234A L235A)
chain 1: not shown
chain 2: B3 chain 2 with Q169K
notes: as for B1
B8: CD3xB7H6-15 bispecific antibody (bispecific antibody, human IgG1, L234A L235A)
chain 1: not shown
chain 2: B3 chain 2 with V62I
notes: as for B1

Substitutions are numbered along the chain they refer to.

For this test, the target named is T1, Human B7H6 (ACRO biosystems, cat. No. …). Briefly: ELISA, B7H6 coated, HRP anti-human IgG detection. How it is done:
Human B7H6 (ACRO biosystems, cat. No. B76-H52H8) and human CD3 antigen (ACRO biosystems, cat. No. CDD-H52W1) were diluted to 2 μg/mL with coating buffer (35 mM NaHCO₃, 15 mM Na₂CO₃, pH 9.6), respectively. 100 μL of the diluted solution was added to each well of an ELISA plate at 4° C. overnight, and then washes with PBST (0.05% Tween 20-PBS, pH 7.2) 3 times. 300 μL of blocking buffer (1% BSA, 0.05% Tween20-PBS, pH 7.2) was added to the plate and allowed to stand at room temperature for 2 h, followed by washing with PBST three times. The corresponding bispecific antibody was added to each well and incubated at room temperature for 1 h, followed by washing with PBST three times. 100 μL of HRP-rabbit anti human IgG secondary antibody (Boster, cat. No. BA1070) diluted in blocking buffer was added to each well and incubated for 1 h at room temperature, followed by washing with PBST three times. TMB was added into each well. The plate was kept away from light at room temperature for 2-5 min, the reaction was stopped by adding 2 M sulfuric acid in each well, and finally OD450 values were read with microplate reader.
(An ELISA detects its analyte on a solid surface through an enzyme-linked reagent.)
For B1, the binding result is reported as “binds”.

With B2, the binding result is recorded as “binds”.

Regarding B3, the binding result was “binds”.

B4: the binding result is reported as “binds”.

B5: the binding result is “binds”.

Take B6: the binding result was “binds”.

Turning to B7, the binding result was “binds”.

B8: the binding result is “binds”.

The values are drawn from patent US20240124615A1 (HEFEI TG IMMUNOPHARMA, published 2024).
